The subject of this data set is CC(C)C[C@H](NC(=O)[C@H](CO)NC(=O)[C@H](C)NC(=O)[C@H](CCCNC(=N)N)NC(=O)[C@H](CCCNC(=N)N)NC(=O)[C@@H](N)CC(C)C)C(=O)NCC(=O)O. It counts as biochemical. The conditions noted are these: other: from the noncompetitive inhibition model fit; pH 7.4.

As to PKA (Homo sapiens), the Km is on record as 12 µM.

Usually Km stands for the substrate concentration at which the rate is half of its maximum.

For the origin of these results see article PMC2749490.
